Data: US6495144 (Johns Hopkins, dated 2002)
Numbering of substitutions follows the chain as printed.

B1: wild-type EBNA2 peptide comprised of amino acids 252-425 (type A) (other)
chain: LHVPDQSMHPLTHQSTPNDPDSPEPRSPTVFYNIPPMPLPPSQLPPPAAPAQPPPGVINDQQLHHLPSGPPWWPPICDPPQPSKTQGQSRGQSRGRGRGRGRGRGKGKSRDKQRKPGGPWRPEPNTSSPSMPELSPVLGLHQGQGAGDSPTPGPSNAAPVCRNSHTATPNVSPI
notes: range 252-425; In vitro transcribed and translated, labeled with 35S-methionine; also called aa252-425 (wild-type); E2 252-425
B2: EBNA2 252-425 SR360VD (PKC) (other)
chain: B1 chain with S109V, R110D
notes: range 252-425; In vitro transcribed and translated; also called PKC mutation
B3: EBNA2 252-425 PI326SR (CR6) (other)
chain: B1 chain with P75S, I76R
notes: range 252-425; In vitro transcribed and translated
B4: EBNA2 252-425 GP320SR (CR6) (other)
chain: B1 chain with G69S, P70R
notes: as for B3
B5: EBNA2 252-425 WW323SR (CR6) (other)
chain: B1 chain with W72S, W73R
notes: as for B3
B6: EBNA2 252-425 LGL389SRT (CR7) (other)
chain: B1 chain with L138S, G139R, L140T
notes: range 252-425; In vitro transcribed and translated; also called CR7 mutation
B7: type B EBNA2 comprising amino acids 216-392 (other)
chain: GHQLSLPPHPPPHQSTPHCSSDSTGLPPPPTSYSIPSMTLSPEPLPPPAAPAHPLPGVIYDQQALPPTPGPPWWPPVRDPTPTTQTPPTNTKQGPDQGQGRGRWRGRGRSKGRGRMHKLPEPRRPGPDTSSPSMPQLSPVVSLHQGQGPENSPTPGPSTAGPVCRVTPSATPDISPI
notes: range 216-392; Prepared by in vitro transcription and translation; gene provided by Dr. Elliott Kieff; also called type B peptide

Assays:
CBF1/RBPJk [1] = target: T1, CBF1/RBPJk (UniProt Q06330 1-500); experiment: EMSA supershift with heparin-agarose purified CBF1 and Cp CBF1 site probe; phosphoimager, relative to wild-type EBNA2(252-425)
T1 construct: also called CBF1 tethering protein
T1 sequence (Q06330 whole entry): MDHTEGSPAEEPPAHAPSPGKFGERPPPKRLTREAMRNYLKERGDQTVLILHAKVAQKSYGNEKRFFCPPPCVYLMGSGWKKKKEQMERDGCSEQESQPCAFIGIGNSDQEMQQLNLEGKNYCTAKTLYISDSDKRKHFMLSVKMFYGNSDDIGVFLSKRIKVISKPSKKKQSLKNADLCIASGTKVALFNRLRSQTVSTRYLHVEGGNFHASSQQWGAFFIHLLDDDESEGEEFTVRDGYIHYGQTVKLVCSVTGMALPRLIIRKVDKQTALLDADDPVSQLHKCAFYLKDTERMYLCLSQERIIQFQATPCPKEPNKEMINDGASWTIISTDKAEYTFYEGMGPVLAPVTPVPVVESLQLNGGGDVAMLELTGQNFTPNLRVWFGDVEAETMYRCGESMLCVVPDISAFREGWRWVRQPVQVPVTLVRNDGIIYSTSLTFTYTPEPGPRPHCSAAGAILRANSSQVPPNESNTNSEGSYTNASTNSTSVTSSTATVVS

CBF1/RBPJk [2] = target: T1, CBF1/RBPJk; experiment: EMSA, against wild-type EBNA2 252-425
CBF1/RBPJk [3] = target: T1, CBF1/RBPJk; experiment: EMSA with two-fold increases in peptide amount, against type A EBNA2 252-425

| Binder | % Complex formation (CBF1/RBPJk [1]) [%] | fold reduction in the amounts of EBNA2/CBF1 complex formed (CBF1/RBPJk [2]) [fold] | fold more peptide required than type A EBNA2 for conversion of all the CBF1 to the supershifted complex (CBF1/RBPJk [3]) [fold] |
| --- | --- | --- | --- |
| B1 | 100 | – | – |
| B2 | 60 | ~2 | – |
| B3 | 5 | – | – |
| B4 | 90 | – | – |
| B5 | < 1 | – | – |
| B6 | 50 | ~2 | – |
| B7 | – | – | 2 |
